B1: 110 (protein, listed as Homo sapiens)
chain: MERPLCSHLCSCLAMLALLSPLSLAQYDSWPHYPEYFQQPAPEYHQPQAPANVAKIQLRLAGQKRKHSEGRVEVYYDGQWGTVCDDDFSIHAAHVVCRELGYVEAKSWTASSSYGKGEGPIWLDNLHCTGNEATLAACTSNGWGVTDCKHTEDVGVVCSDKRIPGFKFDNSLINQIENLNIQVEDIRIRAILSTYRKRTPVMEGYVEVKEGKTWKQICDKHWTAKNSRVVCGMFGFPGERTYNTKVYKMFASRRKQRYWPFSMDCTGTEAHISSCKLGPQVSLDPMKNVTCENGLPAVVSCVPGQVFSPDGPSRFRKAYKPEQPLVRLRGGAYIGEGRVEVLKNGEWGTVCDDKWDLVSASVVCRELGFGSAKEAVTGSRLGQGIGPIHLNEIQCTGNEKSIIDCKFNAESQGCNHEEDAGVRCNTPAMGLQKKLRLNGGRNPYEGRVEVLVERNGSLVWGMVCGQNWGIVEAMVVCRQLGLGFASNAFQETWYWHGDVNSNKVVMSGVKCSGTELSLAHCRHDGEDVACPQGGVQYGAGVACSETAPDLVLNAEMVQQTTYLEDRPMFMLQCAMEENCLSASAAQTDPTTGYRRLLRFSSQIHNNGQSDFRPKNGRHAWIWHDCHRHYHSMEVFTHYDLLNLNGTKVAEGHKASFCLEDTECEGDIQKNYECANFGDQGITMGCWDMYRHDIDCQWVDITDVPPGDYLFQVVINPNFEVAESDYSNNIMKCRSRYDGHRIWMYNCHIGGSFSEETEKKFEHFSGLLNNQLSPQ
B2: 112 (protein, listed as Homo sapiens)
chain: METTFGPAFSAVTTITKADGTSTYKQHCRTPSSSSTLAYSPRDEEDSMPPISTPRRSDSAISVRSLHSESSMSLRSTFSLPEEEEEPEPLVFAEQPSVKLCCQLCCSVFKDPVITTCGHTFCRRCALKSEKCPVDNVKLTVVVNNIAVAEQIGELFIHCRHGCRVAGSGKPPIFEVDPRGCPFTIKLSARKDHEGSCDYRPVRCPNNPSCPPLLRMNLEAHLKECEHIKCPHSKYGCTFIGNQDTYETHLETCRFEGLKEFLQQTDDRFHEMHVALAQKDQEIAFLRSMLGKLSEKIDQLEKSLELKFDVLDENQSKLSEDLMEFRRDASMLNDELSHINARLNMGILGSYDPQQIFKCKGTFVGHQGPVWCLCVYSMGDLLFSGSSDKTIKVWDTCTTYKCQKTLEGHDGIVLALCIQGCKLYSGSADCTIIVWDIQNLQKVNTIRAHDNPVCTLVSSHNVLFSGSLKAIKVWDIVGTELKLKKELTGLNHWVRALVAAQSYLYSGSYQTIKIWDIRTLDCIHVLQTSGGSVYSIAVTNHHIVCGTYENLIHVWDIESKEQVRTLTGHVGTVYALAVISTPDQTKVFSASYDRSLRVWSMDNMICTQTLLRHQGSVTALAVSRGRLFSGAVDSTVKVWTC
B3: 52 (protein, listed as Homo sapiens)
chain: MAASRLELNLVRLLSRCEAMAAEKRDPDEWRLEKYVGALEDMLQALKVHASKPASEVINEYSWKVDFLKGMLQAEKLTSSSEKALANQFLAPGRVPTTARERVPATKTVHLQSRARYTSEMRSELLGTDSAEPEMDVRKRTGVAGSQPVSEKQSAAELDLVLQRHQNLQEKLAEEMLGLARSLKTNTLAAQSVIKKDNQTLSHSLKMADQNLEKLKTESERLEQHTQKSVNWLLWAMLIIVCFIFISMILFIRIMPKLK
B4: 44 (protein, listed as Homo sapiens)
chain: MEDEEVAESWEEAADSGEIDRRLEKKLKITQKESRKSKSPPKVPIVIQDDSLPAGPPPQIRILKRPTSNGVVSSPNSTSRPTLPVKSLAQREAEYAEARKRILGSASPEEEQEKPILDRPTRISQPEDSRQPNNVIRQPLGPDGSQGFKQRR
B5: 50 (protein, listed as Homo sapiens)
chain: MAKERRRAVLELLQRPGNARCADCGAPDPDWASYTLGVFICLSCSGIHRNIPQVSKVKSVRLDAWEEAQVEFMASHGNDAARARFESKVPSFYYRPTPSDCQLLREQWIRAKYERQEFIYPEKQEPYSAGYREGFLWKRGRDNGQFLSRKFVLTEREGALKYFNRNDAKEPKAVMKIEHLNATFQPAKIGHPHGLQVTYLKDNSTRNIFIYHEDGKEIVDWFNALRAARFHYLQVAFPGASDADLVPKLSRNYLKEGYMEKTGPKQTEGFRKRWFTMDDRRLMYFKDPLDAFARGEVFIGSKESGYTVLHGFPPSTQGHHWPHGITIVTPDRKFLFACETESDQREWVAAFQKAVDRPMLPQEYAVEAHFKHKP
B6: 60 (protein, listed as Homo sapiens)
chain: MLGSGFKAERLRVNLRLVINRLKLLEKKKTELAQKARKEIADYLAAGKDERARIRVEHIIREDYLVEAMEILELYCDLLLARFGLIQSMKELDSGLAESVSTLIWAAPRLQSEVAELKIVADQLCAKYSKEYGKLCRTNQIGTVNDRLMHKLSVEAPPKILVERYLIEIAKNYNVPYEPDSVVMVPPQECERMGEALWEDHQRWLDSGREHVVKHPSLVLRFQT
B7: 68 (protein, listed as Homo sapiens)
chain: MLKEEQEVAMLGVPHNPAPPMSTVIHIRSETSVPDHVVWSLFNTLSMNTCCLGFIAFAYSVKSRDRKMVGDVTGAQAYASTAKCLNIWALILGIFMTILLIIIPVLVVQAQR

Each molecule was assayed on MAP kinase cascade activation (assay: Reporter activity reflecting MAP kinase cascade activation, corrected using an internal control (Elk1-GAL4 luciferase reporter in 293-EBNA cells)). Conditions: 12.5 ng/well expression plasmid; 293-EBNA cells; 24 hours.
Assay type: cell-based, human
Protocol: (in the presence of 5% CO2). […] The method used for introduction was in accordance with the attached protocol. After culturing for 24 hours at 37° C., reporter activity (firefly luciferase acitivity), which reflects MAP kinase cascade activation, and reporter activity being the internal control (sea pansy luciferase) were measured using Picagene Dual (purchased from Toyo Ink Manufacturing) in accordance with the manufacturer's instructions.
Luciferase activity was measured with Perkin Elmer's Wallac ARVOTMST 1420 MULTILABEL COUNTER.
Reporter activity where an expression plasmid comprising the above gene was introduced, which reflects MAP kinase cascade activation corrected with internal control reporter activity, is shown in Table 1, which is expressed as a factor of the same reporter activity where a null vector was introduced (S/B value).

Molecule | Reporter activity corrected with internal control, as a factor of null vector (S/B value)
B1 | 2.3
B2 | 7.6

Same assay, conditions: 25 ng/well expression plasmid; 293-EBNA cells; 24 hours

Molecule | Reporter activity corrected with internal control, as a factor of null vector (S/B value)
B3 | 2.3
B1 | 3.4
B4 | 9.1
B5 | 2.3
B6 | 2.0
B7 | 2.3
B2 | 2.2

Same assay, conditions: 50 ng/well expression plasmid; 293-EBNA cells; 24 hours

Molecule | Reporter activity corrected with internal control, as a factor of null vector (S/B value)
B3 | 3.6
B1 | 4.7
B4 | 55.4
B5 | 4.3
B6 | 2.6
B7 | 4.0
B2 | 3.1

Same assay, conditions: 100 ng/well expression plasmid; 293-EBNA cells; 24 hours

Molecule | Reporter activity corrected with internal control, as a factor of null vector (S/B value)
B3 | 5.4
B4 | 64.5
B5 | 3.8
B6 | 4.2
B7 | 7.3

Same assay, conditions: plasmid 12.5 ng, 25 ng, 50 ng and 100 ng

Molecule | Dependence of corrected reporter activity on amount of expression plasmid
B3 | increases that were dependent on the amount of expression plasmid
B1 | increases that were dependent on the amount of expression plasmid
B4 | increases that were dependent on the amount of expression plasmid
B5 | increases that were dependent on the amount of expression plasmid
B6 | increases that were dependent on the amount of expression plasmid
B7 | increases that were dependent on the amount of expression plasmid
B2 | increases that were dependent on the amount of expression plasmid

Source: patent US20030092037A1, “Elk1 phosphorylation related gene” (priority 2001, published 2003)
